T1: human C1s (human, UniProt P09871 16-688)
T1 construct: also called hC1s; serum-derived human C1s (CompTech)
T1 sequence: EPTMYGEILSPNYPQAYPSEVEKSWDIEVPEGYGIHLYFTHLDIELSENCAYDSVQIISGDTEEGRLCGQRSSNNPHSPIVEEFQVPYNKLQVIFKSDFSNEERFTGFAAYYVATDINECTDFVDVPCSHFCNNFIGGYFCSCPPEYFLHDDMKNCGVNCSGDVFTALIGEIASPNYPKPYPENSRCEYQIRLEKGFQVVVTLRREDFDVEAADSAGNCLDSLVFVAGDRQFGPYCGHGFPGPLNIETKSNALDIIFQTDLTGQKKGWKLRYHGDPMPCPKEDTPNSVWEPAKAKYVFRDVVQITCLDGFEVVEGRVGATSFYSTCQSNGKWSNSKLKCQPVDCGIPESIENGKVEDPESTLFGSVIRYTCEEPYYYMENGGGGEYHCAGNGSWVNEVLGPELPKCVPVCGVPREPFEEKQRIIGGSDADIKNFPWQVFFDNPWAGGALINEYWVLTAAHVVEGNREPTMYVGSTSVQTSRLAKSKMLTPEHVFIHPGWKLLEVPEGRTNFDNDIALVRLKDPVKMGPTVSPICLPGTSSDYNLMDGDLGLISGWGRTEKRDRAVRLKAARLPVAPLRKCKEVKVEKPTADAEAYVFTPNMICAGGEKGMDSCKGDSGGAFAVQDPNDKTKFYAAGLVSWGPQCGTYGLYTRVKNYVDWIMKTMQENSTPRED


What was measured:
[1] = biological target: T1, human C1s; experiment: SPR, Ab captured; pH 5.8, 3 uM Ca
Description: (§1) All variants were transiently expressed and purified by the method described above. The binding affinity of each histidine-substituted variant at pH 7.4 and pH 5.8 was determined at 37 degrees C. using Biacore T200 instrument (GE Healthcare). Recombinant Protein A/G (Pierce) was immobilized onto all flow cells of a CM4 sensor chip using an amine coupling kit (GE Healthcare). Antibodies and analytes were prepared in 7(+) buffer (20 mM ACES, 150 mM NaCl, 1.2 mM CaCl2, 0.05% Tween 20, 0.005% NaN3, pH 7.4), 5(+) buffer (20 mM ACES, 150 mM NaCl, 1.2 mM CaCl2, 0.05% Tween 20, 0.005% NaN3, pH 5.8), or 5(−) buffer (20 mM ACES, 150 mM NaCl, 3 micro M CaCl2, 0.05% Tween 20, 0.005% NaN3, pH 5.8). Each antibody was captured onto the sensor surface by protein A/G. Antibody capture levels were aimed at 200 resonance unit (RU). Serum-derived human C1s (CompTech) or recombinant C1s prepared in EXAMPLE 1 was injected at 50 nM, followed by dissociation. The sensor surface was regenerated in each cycle with 10 mM Glycine-HCl, pH 1.5. […] The ratio of KD 5.8+ to KD 7.4+(“KD 5+/7+”) and that of KD 5.8− to KD 7.4+(“KD 5−/7+”) were calculated. When the KD 5+/7+ or KD 5−/7+ of a variant is larger than that of the parent antibody IPN009VH2-SG4GK/IPN009VK3-SK1, that variant is considered to be “pH”- or “pH and Ca”-dependent, respectively. When binding response in 5(+) buffer and/or in 5(−) buffer of a variant is much lower than that of IPN09VH2/IPN009VK3, that variant is also considered as “pH”- and/or “pH and Ca”-dependent. Therefore, such mutations are effective to generate “pH”- and/or “pH and Ca”-dependent antibody. To further enhance “pH” and/or “pH and Ca” dependency, a combination of histidine mutations was conducted. Antibodies with combinations of histidine mutations were evaluated using Biacore by the method described above.

[2] = biological target: T1, human C1s; experiment: SPR, Ab captured; pH 7.4, 1.2 mM Ca
Description: as §1

[3] = biological target: T1, human C1s; experiment: SPR, Ab captured; pH 5.8, 1.2 mM Ca
Description: as §1

[4] = biological target: T1, human C1s; experiment: SPR; KD pH 5.8 3 uM Ca / KD pH 7.4 1.2 mM Ca
Description: as §1

[5] = biological target: T1, human C1s; experiment: SPR; KD pH 5.8 1.2 mM Ca / KD pH 7.4 1.2 mM Ca
Description: as §1

| Binder | koff [1] | kon [1] | koff [2] | kon [2] | koff [3] | kon [3] | KD 5(-)/7(+) [4] | KD 5(+)/7(+) [5] | Kd [1] | Kd [2] | Kd [3] |
| --- | --- | --- | --- | --- | --- | --- | --- | --- | --- | --- | --- |
| C1_IPN92H0033-SG4GK/IPN93L0031-SK1 (antibody, human IgG4 S228P, kappa, name in Kabat numbering, V domains shown, also called IPN92H0033/IPN93L0031) VH: EVMLVESGGGLVKPGGSLRLSCAASGFTFSNYAMSWVRQAPGKGLEWVATISSGGSHTYYLDSVKGRFTISRDNSKDTLYLQMNSLRAEDTALYYCARLFTGHAMDYWGQGTLVTVSS VL: QIVLTQSPATLSLSPGERATLSCTASSSVSSSYLHWYQQKPGKAPKLWIYSTSNLASGVPSRFSGSGSGTDYTLTISSLQPEDFATYYCHQYHRHHPITFGQGTKLEIKR | 0.00934 s⁻¹ | 674000 M⁻¹ s⁻¹ | 0.00187 s⁻¹ | 522000 M⁻¹ s⁻¹ | 0.00209 s⁻¹ | 807000 M⁻¹ s⁻¹ | 3.9 | 0.7 |  |  |  |
| C1_IPN92H0038-SG4GK/IPN009VK3-SK1 (antibody, human IgG4 S228P, kappa, name in Kabat numbering, V domains shown, also called IPN92H0038/IPN009VK3) VH: EVMLVESGGGLVKPGGSLRLSCAASGFTFSNYAMSWVRQAPGKGLEWVATISSGGSHTYYLDSVKHRFTISRDNSKDTLYLQMNSLRAEDTALYYCARLFTGHAMDYWGQGTLVTVSS VL: QIVLTQSPATLSLSPGERATLSCTASSSVSSSYLHWYQQKPGKAPKLWIYSTSNLASGVPSRFSGSGSGTDYTLTISSLQPEDFATYYCHQYYRLPPITFGQGTKLEIKR | 0.00538 s⁻¹ | 646000 M⁻¹ s⁻¹ | 0.000282 s⁻¹ | 415000 M⁻¹ s⁻¹ | 0.000463 s⁻¹ | 693000 M⁻¹ s⁻¹ | 12.3 | 1 | 8.33 nM | 0.679 nM | 0.668 nM |
| C1_IPN92H0038-SG4GK/IPN93L0029-SK1 (antibody, human IgG4 S228P, kappa, name in Kabat numbering, V domains shown, also called IPN92H0038/IPN93L0029) VH: EVMLVESGGGLVKPGGSLRLSCAASGFTFSNYAMSWVRQAPGKGLEWVATISSGGSHTYYLDSVKHRFTISRDNSKDTLYLQMNSLRAEDTALYYCARLFTGHAMDYWGQGTLVTVSS VL: QIVLTQSPATLSLSPGERATLSCTASSSVSSSYLHWYQQKPGKAPKLWIYSTSNLASGVPSRFSGSGSGTDYTLTISSLQPEDFATYYCHQYHRLHPITFGQGTKLEIKR | 0.00522 s⁻¹ | 789000 M⁻¹ s⁻¹ | 0.003 s⁻¹ | 419000 M⁻¹ s⁻¹ | 0.0131 s⁻¹ | 539000 M⁻¹ s⁻¹ | 0.9 | 3.4 | 6.62 nM | 7.15 nM | 24.2 nM |
| C1_IPN92H0038-SG4GK/IPN93L0024-SK1 (antibody, human IgG4 S228P, kappa, name in Kabat numbering, also called IPN92H0038/IPN93L0024) heavy: not shown light: QIVLTQSPATLSLSPGERATLSCTASSSVSSSYLHWYQQKPGKAPKLWIYSTSNLASGVPSRFSGSGSGTDYTLTISSLQPEDFATYYCHQYYRLHPITFGQGTKLEIKRTVAAPSVFIFPPSDEQLKSGTASVVCLLNNFYPREAKVQWKVDNALQSGNSQESVTEQDSKDSTYSLSSTLTLSKADYEKHKVYACEVTHQGLSSPVTKSFNRGEC |  |  | 0.000596 s⁻¹ | 380000 M⁻¹ s⁻¹ | 0.00418 s⁻¹ | 511000 M⁻¹ s⁻¹ | 3.5 | 5.2 | 5.47 nM | 1.57 nM | 8.19 nM |
| C1_IPN92H0038-SG4GK/IPN93L0028-SK1 (antibody, human IgG4 S228P, kappa, name in Kabat numbering, V domains shown, also called IPN92H0038/IPN93L0028) VH: EVMLVESGGGLVKPGGSLRLSCAASGFTFSNYAMSWVRQAPGKGLEWVATISSGGSHTYYLDSVKHRFTISRDNSKDTLYLQMNSLRAEDTALYYCARLFTGHAMDYWGQGTLVTVSS VL: QIVLTQSPATLSLSPGERATLSCTASSSVSSSYLHWYQQKPGKAPKLWIYSTSNLASGVPSRFSGSGSGTDYTLTISSLQPEDFATYYCHQYHRHPPITFGQGTKLEIKR | 0.0174 s⁻¹ | 637000 M⁻¹ s⁻¹ | 0.00125 s⁻¹ | 528000 M⁻¹ s⁻¹ | 0.00789 s⁻¹ | 445000 M⁻¹ s⁻¹ | 11.6 | 7.5 | 27.3 nM | 2.36 nM | 17.7 nM |
| C1_IPN92H0038-SG4GK/IPN93L0023-SK1 (antibody, human IgG4 S228P, kappa, name in Kabat numbering, V domains shown, also called IPN92H0038/IPN93L0023) VH: EVMLVESGGGLVKPGGSLRLSCAASGFTFSNYAMSWVRQAPGKGLEWVATISSGGSHTYYLDSVKHRFTISRDNSKDTLYLQMNSLRAEDTALYYCARLFTGHAMDYWGQGTLVTVSS VL: QIVLTQSPATLSLSPGERATLSCTASSSVSSSYLHWYQQKPGKAPKLWIYSTSNLASGVPSRFSGSGSGTDYTLTISSLQPEDFATYYCHQYYRHPPITFGQGTKLEIKR |  |  | 0.000808 s⁻¹ | 422000 M⁻¹ s⁻¹ | 0.00279 s⁻¹ | 524000 M⁻¹ s⁻¹ | 6.3 | 2.8 | 12.1 nM | 1.91 nM | 5.33 nM |
| C1_IPN92H0038-SG4GK/IPN93L0021-SK1 (antibody, human IgG4 S228P, kappa, name in Kabat numbering, V domains shown, also called IPN92H0038/IPN93L0021) VH: EVMLVESGGGLVKPGGSLRLSCAASGFTFSNYAMSWVRQAPGKGLEWVATISSGGSHTYYLDSVKHRFTISRDNSKDTLYLQMNSLRAEDTALYYCARLFTGHAMDYWGQGTLVTVSS VL: QIVLTQSPATLSLSPGERATLSCTASSSVSSSYLHWYQQKPGKAPKLWIYSTSNLASGVPSRFSGSGSGTDYTLTISSLQPEDFATYYCHQYHRLPPITFGQGTKLEIKR |  |  | 0.000477 s⁻¹ | 498000 M⁻¹ s⁻¹ | 0.00224 s⁻¹ | 634000 M⁻¹ s⁻¹ | 10.6 | 3.7 | 10.2 nM | 0.958 nM | 3.53 nM |

Further lines, results first:

| koff [1] | kon [1] | koff [2] | kon [2] | koff [3] | kon [3] | KD 5(-)/7(+) [4] | KD 5(+)/7(+) [5] | Kd [1] | Kd [2] | Kd [3] | Binder |
| --- | --- | --- | --- | --- | --- | --- | --- | --- | --- | --- | --- |
|  |  | 0.00082 s⁻¹ | 261000 M⁻¹ s⁻¹ | 0.00637 s⁻¹ | 528000 M⁻¹ s⁻¹ | 1.1 | 3.9 | 3.36 nM | 3.14 nM | 12.1 nM | C1_IPN92H0048-SG4GK/IPN93L0024-SK1 (antibody, human IgG4 S228P, kappa, name in Kabat numbering, V domains shown, also called IPN92H0048/IPN93L0024) VH: EVMLVESGGGLVKPGGSLRLSCAASGHTFSNYAMSWVRQAPGKGLEWVATISSGGSHTYYLDSVKGRFTISRDNSKDTLYLQMNSLRAEDTALYYCARLFTGHAMDYWGQGTLVTVSS VL: QIVLTQSPATLSLSPGERATLSCTASSSVSSSYLHWYQQKPGKAPKLWIYSTSNLASGVPSRFSGSGSGTDYTLTISSLQPEDFATYYCHQYYRLHPITFGQGTKLEIKR |
| 0.00476 s⁻¹ | 1.22e+06 M⁻¹ s⁻¹ | 0.0396 s⁻¹ | 7.59e+06 M⁻¹ s⁻¹ | 0.00146 s⁻¹ | 1.18e+06 M⁻¹ s⁻¹ | 0.7 | 0.2 | 3.9 nM | 5.22 nM | 1.24 nM | C1_IPN92H0038-SG4GK/IPN93L0031-SK1 (antibody, human IgG4 S228P, kappa, name in Kabat numbering, V domains shown, also called IPN92H0038/IPN93L0031) VH: EVMLVESGGGLVKPGGSLRLSCAASGFTFSNYAMSWVRQAPGKGLEWVATISSGGSHTYYLDSVKHRFTISRDNSKDTLYLQMNSLRAEDTALYYCARLFTGHAMDYWGQGTLVTVSS VL: QIVLTQSPATLSLSPGERATLSCTASSSVSSSYLHWYQQKPGKAPKLWIYSTSNLASGVPSRFSGSGSGTDYTLTISSLQPEDFATYYCHQYHRHHPITFGQGTKLEIKR |
| 0.00538 s⁻¹ | 8980 M⁻¹ s⁻¹ | 0.0111 s⁻¹ | 558000 M⁻¹ s⁻¹ | 0.017 s⁻¹ | 241000 M⁻¹ s⁻¹ | 30.1 | 3.5 | 599 nM | 19.9 nM | 70.3 nM | C1_IPN92H0038-SG4GK/IPN93L0030-SK1 (antibody, human IgG4 S228P, kappa, name in Kabat numbering, V domains shown, also called IPN92H0038/IPN93L0030) VH: EVMLVESGGGLVKPGGSLRLSCAASGFTFSNYAMSWVRQAPGKGLEWVATISSGGSHTYYLDSVKHRFTISRDNSKDTLYLQMNSLRAEDTALYYCARLFTGHAMDYWGQGTLVTVSS VL: QIVLTQSPATLSLSPGERATLSCTASSSVSSSYLHWYQQKPGKAPKLWIYSTSNLASGVPSRFSGSGSGTDYTLTISSLQPEDFATYYCHQYYRHHPITFGQGTKLEIKR |
